A short description of this data set: Aggregation / sample stability of purified PDZ2 constructs. The class given is physicochemical. From the text: The biochemical behavior of PDZD7 PDZ2 drastically differs from PDZ1, with or without its C-terminal extension. […] In order to further establish the accessible folding states of the PDZ2 extension, we used the same metadynamics approach as for PDZ1ext and probed its conformational energy landscape (Figure 3C).

B1: PDZ2: second PDZ of mouse PDZD7 (G206 to G292) (protein)
chain: GVRRIVHLYTTSDDFCLGFNIRGGKEFGLGIYVSKVDHGGLAEENGIKVGDQVLAANGVRFDDISHSQAVEVLKGQTHIMLTIKETG
modifications: left off: GST, N-terminal, cleaved
Consider B1, for which the sample stability result (15N-labelled PDZ2 constructs, NMR) was “stable for a few hours only”. Besides, where the note is “at temperatures higher than 15 °C, despite extensive screening of buffer conditions”, the aggregation entry is “Rapid aggregation”.

B2: PDZ2 G228R: PDZD7 PDZ2 carrying deafness-causing mutation G228R (protein, UniProt E9Q9W7 206-292, looked up, variant G228R)
chain: GVRRIVHLYTTSDDFCLGFNIRRGKEFGLGIYVSKVDHGGLAEENGIKVGDQVLAANGVRFDDISHSQAVEVLKGQTHIMLTIKETG
Take B2: the aggregation entry (during biophysical experiments, low yield) is “severe aggregation”.
